Test results: PMC10899635, “Q586B2 is a crucial virulence factor during the early stages of Trypanosoma brucei infection that is conserved amongst trypanosomatids” (Nature Communications, 2024)

Molecular target: recombinant Q586B2 protein (Trypanosoma brucei brucei)
Assay: SEC; size exclusion chromatography after IMAC; uniform peak of approximately 55 kDa

## recombinant Q586B2 protein (natural protein)
  stoichiometry N: 4
